From publication PMC3410435 (Structure (London, England : 1993), 2012)

Molecular target: the molecule itself
Experiment: SEC

B1: PdeA(R69A) (enzyme, Caulobacter crescentus, UniProt Q9A310 1-555, looked up)
chain: MSFRTGERRIWDATATLEALGAADVALWIWEPETDRLRLNGAARALGLGPLAPECSSAAFRALALPQDAAQAEEVLKPREPGSEVVARFRVRGGETCLWRGVWLEEGVRAAGVVAPETKFSASELCDLTGLLDRRSFLARARERLAQEGTHQLVVADLDRLRRLNEALGHERADLVLAALGSRLAAAFPAQSILGRIGEDEFAVLCQPLGYEPSDVLRSALEQPLRVAGFDIHPTLSIGAVSAEGGLDAPDAAELLRRAELAVEAAAAAGRGGAAAYGRAMETDGLSRLALEADLRGAIGRGEITPYFQPIVRLSTGALSGFEALARWIHPRRGMLPPDEFLPLIEEMGLMSELGAHMMHAAAQQLSTWRAAHPAMGNLTVSVNLSTGEIDRPGLVADVAETLRVNRLPRGALKLEVTESDIMRDPERAAVILKTLRDAGAGLALDDFGTGFSSLSYLTRLPFDTLKIDRYFVRTMGNNAGSAKIVRSVVKLGQDLDLEVVAEGVENAEMAHALQSLGCDYGQGFGYAPALSPQEAEVYLNEAYVDGAAPVKARG
- stoichiometry N: 2
